Laboratory results as given in PMC3968096.
pKd: −log10 of the molar value.

How the values were obtained:
[1] = tested on: T1, VEGF165 (soluble) (human), P15692-4; test: F-EMSA; details: 1 mM Mg2+, 10 mM HEPES pH 7.9, 125 mM NaCl, 25 mM KCl, 1 mM MgCl2, F-EMSA at room temperature for 2 h, 5% PAGE at 4 C, flow cytometry in the same buffer
T1 sequence: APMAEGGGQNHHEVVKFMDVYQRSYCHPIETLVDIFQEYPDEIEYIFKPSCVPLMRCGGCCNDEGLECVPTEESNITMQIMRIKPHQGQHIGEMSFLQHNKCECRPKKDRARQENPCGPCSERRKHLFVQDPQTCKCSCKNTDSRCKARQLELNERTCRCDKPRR

PDGF-A (human) = PDGF-A (human) (UniProt P04085); test: flow cytometry, yeast display; details: 10 mM HEPES pH 7.9, 125 mM NaCl, 25 mM KCl, 1 mM MgCl2; F-EMSA at room temperature for 2 h, 5% PAGE at 4 C; flow cytometry in the same buffer

Sequence “AAAGCCCACTGCATAGAGGCCGCTCAACATGCGAGCCGGT [hVap2_T2160]” has a pKd ([1]; same value is also printed for SL12) of 6.97.
In the case of “CAGAGCAGGGCGCCGTGTCGCATAGTGTTGTCACTCCCCTGGAGGTCCATGCGAAATATG [hPAap1]”, the pKd (PDGF-A (human)) was 5.40.
In the case of “TAGCCCACTGCATAGAGGTAGCCACGTATGTGGGTGTTACCCATTCGTAGCTACCGGTGA [hVap1 full-length (100 nt)]”, the pKd [1] was 8.85.
